Each block holds one molecule with its values, some of them ahead of it.
Legend:
[1] = target: SAO-1::RFP (C. elegans); experiment: FRET or BRET; fluorescence lifetime imaging (FLIM) of the GFP donor in live adult worms; TCSPC
[2] = target: purified C-terminal region (residues 182–226) of SAO-1 (ITC) (C. elegans); experiment: ITC; 25 °C; 50 mM Tris-Cl pH 7.5, 100 mM NaCl; 400 μM DLC-1 injected into 40 μM SAO-1; 13 titrations; one-site binding model
[3] = target: SAO-1C1(182-205) peptide (crystal) (C. elegans); experiment: crystal structure; sitting drop vapor diffusion at 16 °C; 0.2 M potassium chloride, 0.05 M HEPES pH 7.5, 35% pentaerythritol propoxylate; 2.4 Å
[4] = target: the molecule itself; experiment: as above
[5] = target: T1, Trx-His6-DLC-1, Q22799; experiment: pull-down (GST pull-down, Western blot with His antibody, band quantification); settings: chain shown with the change;; parent: est. 1.0; read off a plot
T1 chain: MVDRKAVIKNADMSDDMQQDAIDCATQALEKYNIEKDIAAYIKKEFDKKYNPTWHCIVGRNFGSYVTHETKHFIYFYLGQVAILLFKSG

Molecule: DLC-1::GFP (from UniProt Q22799 1-89) (natural protein)
GFP mean fluorescence lifetime (τ) with SAO-1::RFP [1]: 2.85 ns

B1: full-length DLC-1 (ITC and crystallography) (natural protein, C. elegans, UniProt Q22799 1-89, looked up)
chain: MVDRKAVIKNADMSDDMQQDAIDCATQALEKYNIEKDIAAYIKKEFDKKYNPTWHCIVGRNFGSYVTHETKHFIYFYLGQVAILLFKSG
notes: dynein light chain 1 (DLC-1), C. elegans; Same construct as m1; Forms dimers in the crystal
binding result [4]: binds

B3: GST-SAO-1 C199A; Q200A; T201A (protein)
chain: MHKNGNNGPVIDTKWHYLGPDSEKYGPYMSKDMLFWLQAGYFNDGLQLKTENEPNYHTLGEWSQLLGTHPFSMPVHSLDATIAQMNSMRPHGAMMMVPPGLQNQFQPPMPMRFPPFLPMPLLHQMNQNGPPMGAQMHSQPPSEPIDAGSLSHTPDSENEFQGHGRKPHHHQQILAHQHIPQMQHANVATDQVVMKSVEAAAEPVEISKEQASRVLSELLGQMVIIN
ratio to parent [5]: 0.15

More lines, now with the values ahead:

Kd [2]: 500 nM | stoichiometry N (DLC-1 per SAO-1) [2]: 2 | stoichiometry N (DLC-1 per SAO-1) [3]: 2
Molecule: full-length DLC-1 (ITC and crystallography) (from UniProt Q22799 1-89) (natural protein)

ratio to parent [5]: 0.57
B2: GST-SAO-1 V187A; T189A (protein)
chain: MHKNGNNGPVIDTKWHYLGPDSEKYGPYMSKDMLFWLQAGYFNDGLQLKTENEPNYHTLGEWSQLLGTHPFSMPVHSLDATIAQMNSMRPHGAMMMVPPGLQNQFQPPMPMRFPPFLPMPLLHQMNQNGPPMGAQMHSQPPSEPIDAGSLSHTPDSENEFQGHGRKPHHHQQILAHQHIPQMQHANAAADQVVMKSVECQTEPVEISKEQASRVLSELLGQMVIIN

From article PMC9630320, “Interaction between DLC-1 and SAO-1 facilitates CED-4 translocation during apoptosis in the Caenorhabditis elegans germline” (Cell Death Discovery, 2022)
